The text below walks through data of PMC2150872 (The Journal of Cell Biology, 2001).

The target in test [1] is T1, wt K5–K14 filaments (human, UniProt P13647 1-590; P02533 1-472).
T1 sequence (looked up) 1: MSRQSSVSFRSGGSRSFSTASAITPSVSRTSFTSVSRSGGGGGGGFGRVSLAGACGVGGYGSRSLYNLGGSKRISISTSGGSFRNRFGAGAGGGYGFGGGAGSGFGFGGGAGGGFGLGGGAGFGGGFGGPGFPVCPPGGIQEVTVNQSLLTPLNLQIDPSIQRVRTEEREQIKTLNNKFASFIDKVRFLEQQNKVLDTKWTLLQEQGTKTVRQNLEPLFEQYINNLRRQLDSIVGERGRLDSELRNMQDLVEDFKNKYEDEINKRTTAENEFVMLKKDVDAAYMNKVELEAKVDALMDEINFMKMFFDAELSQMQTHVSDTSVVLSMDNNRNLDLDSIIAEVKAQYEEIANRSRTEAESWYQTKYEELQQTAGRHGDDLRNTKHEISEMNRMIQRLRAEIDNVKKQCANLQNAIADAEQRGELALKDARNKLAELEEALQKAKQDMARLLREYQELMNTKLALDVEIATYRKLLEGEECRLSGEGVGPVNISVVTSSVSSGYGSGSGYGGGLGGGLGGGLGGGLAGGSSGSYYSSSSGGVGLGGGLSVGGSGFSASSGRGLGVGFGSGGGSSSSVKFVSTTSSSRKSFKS
T1 sequence (looked up) 2: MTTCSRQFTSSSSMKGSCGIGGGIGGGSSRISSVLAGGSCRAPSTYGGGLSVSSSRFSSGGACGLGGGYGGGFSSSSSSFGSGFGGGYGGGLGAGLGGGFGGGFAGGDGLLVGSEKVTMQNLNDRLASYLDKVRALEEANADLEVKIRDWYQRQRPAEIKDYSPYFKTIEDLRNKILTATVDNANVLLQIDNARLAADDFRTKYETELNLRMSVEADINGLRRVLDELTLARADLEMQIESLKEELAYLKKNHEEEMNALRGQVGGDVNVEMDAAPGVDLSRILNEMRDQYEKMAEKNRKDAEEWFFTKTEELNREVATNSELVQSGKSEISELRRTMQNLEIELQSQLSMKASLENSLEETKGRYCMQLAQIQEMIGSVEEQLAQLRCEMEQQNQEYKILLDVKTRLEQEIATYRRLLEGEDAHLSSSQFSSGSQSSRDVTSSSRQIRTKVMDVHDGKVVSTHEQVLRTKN
The experiment in a line: co-sedimentation.

In test [2] the target is T2, keratin 5 (human, UniProt P13647 1-590).
T2 sequence (looked up): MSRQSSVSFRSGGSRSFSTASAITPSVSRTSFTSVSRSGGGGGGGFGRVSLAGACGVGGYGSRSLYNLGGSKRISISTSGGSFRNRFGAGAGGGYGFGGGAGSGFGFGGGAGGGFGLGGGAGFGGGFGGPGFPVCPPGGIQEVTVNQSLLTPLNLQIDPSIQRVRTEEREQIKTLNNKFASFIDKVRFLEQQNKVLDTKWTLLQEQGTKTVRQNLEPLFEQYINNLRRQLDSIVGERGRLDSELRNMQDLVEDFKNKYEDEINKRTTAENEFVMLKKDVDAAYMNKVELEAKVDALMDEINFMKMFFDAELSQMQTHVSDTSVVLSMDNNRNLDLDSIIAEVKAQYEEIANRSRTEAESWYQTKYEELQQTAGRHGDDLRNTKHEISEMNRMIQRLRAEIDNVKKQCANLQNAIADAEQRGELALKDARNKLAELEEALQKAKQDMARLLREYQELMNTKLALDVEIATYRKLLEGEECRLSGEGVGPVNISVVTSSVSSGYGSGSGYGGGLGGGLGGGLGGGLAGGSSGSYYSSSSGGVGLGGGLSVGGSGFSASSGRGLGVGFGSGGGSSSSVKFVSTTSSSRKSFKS
The experiment in a line: filament reconstitution.

The Kd is the free concentration of one partner at which half of the binding sites on the other are occupied at equilibrium, for simple one-to-one binding.

SSSQFSSGSQSSRDVTSSSRQIRTKVMDVHDGKVVSTHEQVLRTKN (domain or fragment) [His-T14 (His-tagged nonhelical tail domain of human keratin 14)]: in test [1], the Kd was about 2000 nM.

B1: keratin 19 (natural protein, human, UniProt P08727 1-400, looked up)
chain: MTSYSYRQSSATSSFGGLGGGSVRFGPGVAFRAPSIHGGSGGRGVSVSSARFVSSSSSGAYGGGYGGVLTASDGLLAGNEKLTMQNLNDRLASYLDKVRALEAANGELEVKIRDWYQKQGPGPSRDYSHYYTTIQDLRDKILGATIENSRIVLQIDNARLAADDFRTKFETEQALRMSVEADINGLRRVLDELTLARTDLEMQIEGLKEELAYLKKNHEEEISTLRGQVGGQVSVEVDSAPGTDLAKILSDMRSQYEVMAEQNRKDAEAWFTSRTEELNREVAGHTEQLQMSRSEVTDLRRTLQGLEIELQSQLSMKAALEDTLAETEARFGAQLAHIQALISGIEAQLGDVRADSERQNQEYQRLMDIKSRLEQEIATYRSLLEGQEDHYNNLSASKVL
B1: the binding result in test [2] was “binds”.
